Assay results published in patent US20220064282A1 (ZEDA BIOPHARMACEUTICALS, published 2022).
Substitutions are numbered along the chain they refer to.

Legend:
IL-1β-his [1] = target: T1, IL-1β-his (human, UniProt P01584 117-269); assay: ELISA, IL-1β-his coated
T1 construct: also called IL1b-His; IL-1β-WT-His

IL-1β-his [2] = target: T1, IL-1β-his; assay: ELISA, IL-1β-his coated, antibody titrated (Example 9, method of Example 6.1); Mean, SD 0.000; upper right table
IL-1β-his [3] = target: T1, IL-1β-his; assay: ELISA, IL-1β-his coated, antibody titrated (Example 9, method of Example 6.1); Mean, SD 0.000; upper left table
IL-1β-his [4] = target: T1, IL-1β-his; assay: ELISA, IL-1β-his coated, antibody titrated (Example 9, method of Example 6.1); Mean, SD 0.002; lower right table
IL-1β-his [5] = target: T1, IL-1β-his; assay: BLI (Fortebio Octet Qke), antibody immobilised on AR2G sensor, IL1β-his 1.56-100 nM, 1:1 fit
IL-1β-his [6] = target: T1, IL-1β-his; assay: ELISA on IL-1β-his (Example 11, method of Example 6.1); sample kept at 40 °C for 7 d; Mean, SD 0.001
IL-1β-his [7] = target: T1, IL-1β-his; assay: ELISA, IL-1β-his coated, antibody titrated (Example 9, method of Example 6.1); Mean, SD 0.019; lower left table
IL-1β-his [8] = target: T1, IL-1β-his; assay: ELISA on IL-1β-his (Example 11, method of Example 6.1); sample kept at 40 °C for 28 d; Mean, SD 0.023
IL-1β-his-bio = target: T2, IL-1β-his-bio (human, UniProt P01584 117-269, biotinylated, sites not stated); assay: ELISA, IL-1β-his-bio captured on streptavidin plate
T2 construct: also called biotinylated IL1b-His

IL-1β-hFc [9] = target: T3, IL-1β-hFc (human); assay: competition ELISA, IL-1β-hFc coated, competitor IL1RI(1-332)-his at 0.04 µg/ml, anti-His detection
T3 construct: also called IL1b-TEV-hIgG1Fc

IL-1β-hFc [10] = target: T3, IL-1β-hFc; assay: competition ELISA: IL-1β-hFc coated, antibody titrated, IL1RI (1-332)-his as the blocked receptor (Example 12, method of Example 6.2)
IL-1β-hFc [11] = target: T3, IL-1β-hFc; assay: competition ELISA, IL-1β-hFc coated, competitor IL1RI(1-332)-his, anti-His detection
[12] = target: T4, IL1β (antigen used as analyte in Biacore) (UniProt P01584 117-269, limits assumed); assay: SPR (Biacore), antibody captured on Protein A chip, antigen as analyte
T4 construct: also called the antigen

IL-1β-hFc [13] = target: T3, IL-1β-hFc; assay: competition ELISA by the method of Example 6.2, competitor IL1RI

B1: humanized antibody 18H11 H1L1 (antibody, V domains shown)
VH: QVQLVQSGAEVVKPGASVKISCKASGYLFTGYYMHWVKQAPGKGLEWIGFISCYNGDTTYNQKFQGKATFTVDTSTNTAYMEFNSLTSEDTAVYYCSRSDYYGTSDYWGQGTTLTVSS
VL: EIVLTQSPATMSASPGERVTISCRASSSVSYMHWFQQKPGQAPRLWIYTTSTLATGVPARFSGSGSGTDYTLTISRMEPEDAATYYCQQRIIYPPTFGGGTKLEIKR
IL-1β-his [1]
  EC50: 0.046 nM
IL-1β-his [2]
  EC50: 0.051 nM
IL-1β-his [3]
  EC50: 0.051 nM
IL-1β-his [4]
  EC50: 0.051 nM
IL-1β-his [5]
  Kd: 0.142 nM
IL-1β-his [6]
  EC50: 0.076 nM
IL-1β-his [7]
  EC50: 0.074 nM
IL-1β-his [8]
  EC50: 0.133 nM

B2: murine antibody KF021ZP4 18H11 (antibody, V domains shown)
VH: EVQLQQSGPELVKTGASVKISCKASGYLFTGYYMHWVKQSHGKSLEWIGFISCYNGDTTYNQKFKDKATFTVDTSSNTAYMQFNSLTSEDSAVYYCSRSDYYGTSDYWGQGTTLTVSS
VL: QIVLTQSPAIMSASPGEKVTITCSASSSVSYMHWFQQKPGTSPKLWIYTTSTLASGVPARFSGSGSGTSYSLTISRMEAEDAATYYCQQRIIYPPTFGGGTKLEIK
notes: Mouse monoclonal antibody from hybridoma supernatant
IL-1β-his-bio
  EC50: 0.174 nM
IL-1β-hFc [9]
  EC50: 0.389 nM

B3: murine antibody KF021ZP4 9D5 (antibody, V domains shown)
VH: DVQLVESGGGLVQPGGSRKLSCAASGFTFSTFGMHWVRQAPEKGLEWVAYISSGSYTTYYADTVRGRFTISRDNPKNTLFLQMTSLRSEDTAMYYCARDDYDVSNYVMDYWGQGTSVTVSS
VL: DIVLTQSPASLAVSLGQRATISCRASESVEYYGTSLMQWYQQKPGQPPKLLIYAASNVESGVPARFTGSGSGTVFSLNIHPVEEDDIAMYFCQQSRKVPSLTFGAGTKLELK
notes: as for B2
IL-1β-his-bio
  EC50: 0.036 nM
IL-1β-hFc [9]
  EC50: 0.37 nM

B4: murine antibody KF021ZP4 19E4 (antibody, V domains shown)
VH: B3 VH with T58I, N105Y, V107A
VL: B3 VL with T67S, V74D
notes: as for B2
IL-1β-his-bio
  EC50: 0.726 nM
IL-1β-hFc [9]
  EC50: 0.892 nM

B5: Positive control antibody PcAb (antibody, human IgG1, kappa, V domains shown)
VH: QVQLVESGGGVVQPGRSLRLSCAASGFTFSVYGMNWVRQAPGKGLEWVAIIWYDGDNQYYADSVKGRFTISRDNSKNTLYLQMNGLRAEDTAVYYCARDLRTGPFDYWGQGTLVTVSS
VL: EIVLTQSPDFQSVTPKEKVTITCRASQSIGSSLHWYQQKPDQSPKLLIKYASQSFSGVPSRFSGSGSGTDFTLTINSLEAEDAAAYYCHQSSSLPFTFGPGTKVDIKR
notes: also called KF021ZP4 PcAb; KF021ZP4 PCAb
IL-1β-his [1]
  EC50: 0.169 nM
IL-1β-hFc [10]
  IC50 (read off the curve): ~3 nM
IL-1β-hFc [11]
  EC50: 0.516 nM
[12]
  Kd: 0.0616 nM
  koff: 0.000104 s⁻¹
  kon: 1.69e+06 M⁻¹ s⁻¹
IL-1β-his-bio
  EC50: 0.062 nM
IL-1β-his [5]
  Kd: 0.179 nM
  koff: 0.000105 s⁻¹
  kon: 589000 M⁻¹ s⁻¹
IL-1β-hFc [9]
  EC50: 0.229 nM
IL-1β-hFc [13]
  IC50: 0.03 nM
